Data taken from patent US20160264684A1, “GLYCAN-INTERACTING COMPOUNDS AND METHODS OF USE” (SIAMAB THERAPEUTICS, INC., priority 2013, published 2016).
Values joined by “and” are separate entries in the source; they are usually repeats but may differ in a detail not shown here. Identical values can stand only once.

Legend:
GcSTn-PAA ELISA = type: binding; conditions: 200 ng/well PAA antigen; 1:5 dilutions from 1 μM
Procedure: (§1) Anti-STn serum titer is determined using a murine anti-STn bovine submaxillary mucin (BSM) ELISA together with serum profiles observed by glycan microarray. 96-well plates are coated with 1 μg/well of BSM and incubated overnight at 4° C. O-acetylation of BSM antigen is removed by treating wells with 0.1 M sodium hydroxide. Specific binding to STn is determined by treatment of wells with sodium periodate. Periodate treatment destroys the C6 side chain of sialic acid; therefore antibodies raised against STn should not bind to periodate-treated wells. Wells are blocked with PBS 1% ovalbumin (OVA). Serum samples to be assayed are serially diluted in PBS 1% OVA. […] Detection of anti-STn antibodies present in serum is determined using an HRP-conjugated polyclonal goat anti-mouse IgG antibody (Jackson Immunoresearch, West Grove, Pa.). […] Optical densities are measured at 490 nm using a Spectramax microplate reader (Molecular Devices, Sunnyvale, Calif.). The serum titer is obtained by comparison of OD values with a cutoff value calculated as two standard deviations above the mean of optical density values of the negative control. […]
(§2) 18D2 and 18C7 antibodies were further characterized by ELISA comprising antigens other than BSM. […] Binding of anti-STn antibodies was detected using a goat anti-mouse IgG-HRP conjugated antibody (Jackson Immunoresearch Laboratories, West Grove, Pa.). […]

[1] = test system: ST6GalNAc 1 transfected MDA-MB-231 cells; test: Flow cytometry-based analysis of antibody binding, STn+ cells; type: cell-based, human
Procedure: Flow cytometry-based analysis is carried out to elucidate the curve-dose response for binding of antibodies to cell surface antigens. For these analyses, three cell lines are employed.
MDA-MB-231 cells are human breast cancer cells. They are grown in Earle's Minimum Essential Medium supplemented with 10% fetal calf serum (FCS), 100 μg/ml penicillin, 100 UI/ml streptomycin and 45 μg/ml gentamycin. MCF-7 cells are also human breast cancer cells and are grown under the same conditions as MDA-MB-231 cells. Stably transfected versions of MDA-MB-231 and MCF-7 cells (clone TAH3.P10 for MDA-MB-231 cells and clone A12.1 for MCF-7 cells) that over express GalNAc α2,6-sialyltransferase (ST6GalNAc 1,) are also cultured under the same conditions with the exception of an added 1 mg/ml of G418 to support cells expressing the transgene. ST6GalNAc 1 is an enzyme capable of sialylating GalNAc. […]
For analysis, cells are harvested using StemPro Accutase (Life Technologies, Carlsbad, Calif.) and washed with PBS comprising 5% FBS before pelleting by light centrifugation. Cell numbers and viability are determined by trypan blue dye exclusion analysis and cell concentrations are adjusted to 5×10^6 cells/ml in PBS with 5% FBS. […] Cells are combined with 50 μl solutions of antibody being analyzed or control antibodies and incubated for 1 hour at 4° C. […]

[2] = Glycan microarray analysis, 9-O-acetylated AcSTn; type: binding
Procedure: (§3) Optimized glycan arrays comprise 71 chemically synthesized and well-defined glycans, most of which comprise Neu5Ac and Neu5Gc glycan pairs.
(§4) 300 ml of epoxy blocking buffer is prepared by combining 15 ml of 2 M Tris buffer (pH 8) with 0.9 ml of 16.6 M ethanolamine and 284.1 ml of distilled water. The solution is filtered using a 0.2 μM nitrocellulose membrane. The epoxy buffer solution as well as 1 L of distilled water are pre-warmed to 50° C. Glass slides are arranged in a slide holder and quickly submerged in a staining tub with the warmed epoxy blocking buffer. Slides are incubated in the epoxy blocking buffer for 1 hour at 50° C. with periodic shaking to deactivate epoxy binding sites. Next, slides are rinsed and blocked with PBS with 1% OVA at 25° C. for one hour. Serum samples are diluted 1:1000 in PBS with 1% OVA and added to the glycan array for one hour at 25° C. After extensive washing, binding of polyclonal serum antibodies are detected by incubating glycan microarray slides with Cy3-conjugated anti-mouse IgG (Jackson Immunoresearch, West Grove, Pa.) for one hour. […]
(§5) 18D2 and 18C7 clones were expanded and binding properties of these hybridomas were determined by glycan microarray analysis according to Example 4. […] No binding to Tn antigen or other glycans was detected.

AcSTn-PAA ELISA = type: binding; conditions: 200 ng/well PAA antigen; 1:5 dilutions from 1 μM
Procedure: as §1, §2

[3] = Glycan microarray analysis, Tn antigen or other glycans; type: binding
Procedure: as §3, §4, §5

B1: 18D2: anti-STn monoclonal antibody from mouse #4436; IgG2b κ; heavy chain SEQ ID NO 1, light chains SEQ ID NO 2 and 3 (antibody, V domains shown)
VH: QVTLKESGPGILQPSQTLSLTCSFSGFSLSTSNMGIGWIRQPSGKGLEWLAHIWWHDDKYYNPSLKSRLTISKDISNNQVFLKITSVDTADTATYYCAQVPFYYGTSFDVWGTGTTVTVSS
VL 1: DIVMTQSPATLSVTPGDRVSLSCRASQSISDYLHWYQQKSHESPRLLIKYASQSISGIPSRFSGSGSGSDFTLSINSVEPEDVGVYYCQNGHSFPLTFGAGTKLELK
VL 2: QIVLTQSPAIMSASPGETVTMTCSASSSITYMHWYQQKPGTSPKRWIYDTSKLASGVPARFSGSGSGTSYSLTISSMEAEDAATYYCHQRSSYTFGGGTKLEIKR
EC50 (GcSTn-PAA ELISA): 1.57 nM
EC50, flow cytometry binding to cell-associated STn ([1]; ST6GalNAc 1 transfected MDA-MB-231 cells (STn expressed on MDA cells)): 44.08 nM and 74.51 nM
EC50 ([1]; no unit printed (same values in nM in b551, b556)): 65.8 nM
mean fluorescence intensity, Neu5,9Ac2-α2,6-GalNAc [2]: about 4,500
EC50 (AcSTn-PAA ELISA): 1.71 nM
binding to Tn antigen or other glycans [3]: No binding
